The sequences below were run on Escherichia coli TOP10 (assay: shrunken log2 fold change of peptide-encoding DNA abundance (4.5 h post-induction vs induction); higher = less antimicrobial activity (less host growth inhibition)). Details: time post-induction: 4.5 h; library: site-saturation at positions 5, 18, 19, 20.
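Further: peptides expressed intracellularly from a pBAD plasmid library in pooled LB shake-flask culture, induced with 0.3% L-arabinose, DNA abundance read by NGS, three biological replicates, DESeq2 with apeglm shrinkage.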

| Sequence | shrunken log2 fold change |
| --- | --- |
| RRIRIRPPRLPRPRPRPKQAPRP | 0.0872 |
| RRIRIRPPRLPRPRPRPKQDPRP | -0.354 |
| RRIRIRPPRLPRPRPRPKQHPRP | -0.307 |
| RRIRIRPPRLPRPRPRPKQIPRP | -0.205 |
| RRIRIRPPRLPRPRPRPKQRPRP | 0.0202 |
| RRIRIRPPRLPRPRPRPKRTPRP | -0.198 |
| RRIRIRPPRLPRPRPRPKRYPRP | -0.118 |
| RRIRIRPPRLPRPRPRPKTCPRP | 0.179 |
| RRIRIRPPRLPRPRPRPKTYPRP | -0.879 |
| RRIRIRPPRLPRPRPRPKWTPRP | -0.116 |
| RRIRIRPPRLPRPRPRPKYIPRP | -0.992 |
| RRIRIRPPRLPRPRPRPKYPPRP | -0.121 |
| RRIRIRPPRLPRPRPRPLAAPRP | 0.255 |
| RRIRIRPPRLPRPRPRPLARPRP | 0.346 |
| RRIRIRPPRLPRPRPRPLAVPRP | 0.097 |
| RRIRIRPPRLPRPRPRPLCLPRP | -0.736 |
| RRIRIRPPRLPRPRPRPLCVPRP | -0.551 |
| RRIRIRPPRLPRPRPRPLDMPRP | -0.285 |
| RRIRIRPPRLPRPRPRPLDQPRP | -0.127 |
| RRIRIRPPRLPRPRPRPLEAPRP | -0.118 |
| RRIRIRPPRLPRPRPRPLETPRP | -0.0471 |
| RRIRIRPPRLPRPRPRPLFTPRP | -0.374 |
| RRIRIRPPRLPRPRPRPLFWPRP | -0.145 |
| RRIRIRPPRLPRPRPRPLGNPRP | -0.19 |
| RRIRIRPPRLPRPRPRPLHSPRP | -0.402 |

| Sequence | shrunken log2 fold change |
| --- | --- |
| RRIRIRPPRLPRPRPRPLIMPRP | -0.853 |
| RRIRIRPPRLPRPRPRPLKRPRP | -0.0843 |
| RRIRIRPPRLPRPRPRPLKYPRP | -0.0551 |
| RRIRIRPPRLPRPRPRPLLVPRP | -0.565 |
| RRIRIRPPRLPRPRPRPLMDPRP | -0.396 |
| RRIRIRPPRLPRPRPRPLMNPRP | -0.94 |
| RRIRIRPPRLPRPRPRPLPDPRP | 0.0943 |
| RRIRIRPPRLPRPRPRPLPQPRP | -0.247 |
| RRIRIRPPRLPRPRPRPLQHPRP | -0.121 |
| RRIRIRPPRLPRPRPRPLQKPRP | -0.0683 |
| RRIRIRPPRLPRPRPRPLQNPRP | -0.359 |
| RRIRIRPPRLPRPRPRPLRCPRP | -0.14 |
| RRIRIRPPRLPRPRPRPLREPRP | 0.255 |
| RRIRIRPPRLPRPRPRPLRVPRP | 0.291 |
| RRIRIRPPRLPRPRPRPLSDPRP | 0.0446 |
| RRIRIRPPRLPRPRPRPLSWPRP | -0.0609 |
| RRIRIRPPRLPRPRPRPLVDPRP | 0.126 |
| RRIRIRPPRLPRPRPRPLVIPRP | -1.46 |
| RRIRIRPPRLPRPRPRPLWDPRP | -0.113 |
| RRIRIRPPRLPRPRPRPLWMPRP | -0.303 |
| RRIRIRPPRLPRPRPRPLWRPRP | 0.156 |
| RRIRIRPPRLPRPRPRPLYSPRP | -0.674 |
| RRIRIRPPRLPRPRPRPMGTPRP | -0.0384 |
| RRIRIRPPRLPRPRPRPMHPPRP | 0.00185 |
| RRIRIRPPRLPRPRPRPMIAPRP | -0.101 |

| Sequence | shrunken log2 fold change |
| --- | --- |
| RRIRIRPPRLPRPRPRPMIMPRP | -0.615 |
| RRIRIRPPRLPRPRPRPMKHPRP | -0.224 |
| RRIRIRPPRLPRPRPRPMKLPRP | -0.519 |
| RRIRIRPPRLPRPRPRPMMLPRP | -0.0496 |
| RRIRIRPPRLPRPRPRPMNVPRP | -0.122 |
| RRIRIRPPRLPRPRPRPMPEPRP | -0.11 |
| RRIRIRPPRLPRPRPRPMPPPRP | -0.0836 |
| RRIRIRPPRLPRPRPRPMQTPRP | -0.0288 |
| RRIRIRPPRLPRPRPRPMRWPRP | -0.0141 |
| RRIRIRPPRLPRPRPRPMTWPRP | -0.0244 |
| RRIRIRPPRLPRPRPRPMVCPRP | -0.0245 |
| RRIRIRPPRLPRPRPRPMVYPRP | -0.136 |
| RRIRIRPPRLPRPRPRPMWFPRP | -0.0453 |
| RRIRIRPPRLPRPRPRPNAEPRP | -0.151 |
| RRIRIRPPRLPRPRPRPNEGPRP | -0.45 |
| RRIRIRPPRLPRPRPRPNFAPRP | 0.0322 |
| RRIRIRPPRLPRPRPRPNGYPRP | -0.0764 |
| RRIRIRPPRLPRPRPRPNHEPRP | 0.042 |
| RRIRIRPPRLPRPRPRPNINPRP | -0.918 |
| RRIRIRPPRLPRPRPRPNKGPRP | -0.137 |
| RRIRIRPPRLPRPRPRPNMEPRP | -0.509 |
| RRIRIRPPRLPRPRPRPNMKPRP | -0.625 |
| RRIRIRPPRLPRPRPRPNNEPRP | -0.597 |
| RRIRIRPPRLPRPRPRPNPCPRP | -0.159 |
| RRIRIRPPRLPRPRPRPNQFPRP | -0.0326 |

| Sequence | shrunken log2 fold change |
| --- | --- |
| RRIRIRPPRLPRPRPRPNRIPRP | -0.481 |
| RRIRIRPPRLPRPRPRPNTHPRP | -0.677 |
| RRIRIRPPRLPRPRPRPNVCPRP | -0.204 |
| RRIRIRPPRLPRPRPRPNVRPRP | 0.0422 |
| RRIRIRPPRLPRPRPRPNVVPRP | -0.508 |
| RRIRIRPPRLPRPRPRPNYEPRP | -0.396 |
| RRIRIRPPRLPRPRPRPNYPPRP | -0.565 |
| RRIRIRPPRLPRPRPRPNYSPRP | -0.937 |
| RRIRIRPPRLPRPRPRPPAGPRP | 0.518 |
| RRIRIRPPRLPRPRPRPPDIPRP | -0.198 |
| RRIRIRPPRLPRPRPRPPDTPRP | -0.116 |
| RRIRIRPPRLPRPRPRPPERPRP | 0.324 |
| RRIRIRPPRLPRPRPRPPFMPRP | -0.256 |
| RRIRIRPPRLPRPRPRPPFQPRP | 0.0365 |
| RRIRIRPPRLPRPRPRPPHPPRP | 0.154 |
| RRIRIRPPRLPRPRPRPPIAPRP | -0.109 |
| RRIRIRPPRLPRPRPRPPIKPRP | -0.4 |
| RRIRIRPPRLPRPRPRPPILPRP | -0.0859 |
| RRIRIRPPRLPRPRPRPPKFPRP | -0.294 |
| RRIRIRPPRLPRPRPRPPMRPRP | 0.591 |
| RRIRIRPPRLPRPRPRPPPEPRP | 0.32 |
| RRIRIRPPRLPRPRPRPPPGPRP | 0.685 |
| RRIRIRPPRLPRPRPRPPPQPRP | 0.52 |
| RRIRIRPPRLPRPRPRPPPRPRP | 0.929 |
| RRIRIRPPRLPRPRPRPPQAPRP | 0.639 |

| Sequence | shrunken log2 fold change |
| --- | --- |
| RRIRIRPPRLPRPRPRPPQRPRP | 0.27 |
| RRIRIRPPRLPRPRPRPPRGPRP | 0.534 |
| RRIRIRPPRLPRPRPRPPSHPRP | -0.0543 |
| RRIRIRPPRLPRPRPRPPVKPRP | -0.156 |
| RRIRIRPPRLPRPRPRPPVQPRP | -0.0716 |
| RRIRIRPPRLPRPRPRPPVTPRP | -0.287 |
| RRIRIRPPRLPRPRPRPPWNPRP | -0.403 |
| RRIRIRPPRLPRPRPRPPYIPRP | -0.299 |
| RRIRIRPPRLPRPRPRPQAHPRP | -0.261 |
| RRIRIRPPRLPRPRPRPQAKPRP | 0.2 |
| RRIRIRPPRLPRPRPRPQCLPRP | -0.47 |
| RRIRIRPPRLPRPRPRPQCYPRP | -0.0646 |
| RRIRIRPPRLPRPRPRPQDEPRP | 0.0381 |
| RRIRIRPPRLPRPRPRPQEEPRP | 0.0133 |
| RRIRIRPPRLPRPRPRPQERPRP | -0.17 |
| RRIRIRPPRLPRPRPRPQFKPRP | -0.609 |
| RRIRIRPPRLPRPRPRPQFMPRP | -0.831 |
| RRIRIRPPRLPRPRPRPQGGPRP | 0.102 |
| RRIRIRPPRLPRPRPRPQHQPRP | -0.344 |
| RRIRIRPPRLPRPRPRPQILPRP | 0.0356 |
| RRIRIRPPRLPRPRPRPQKKPRP | -0.0235 |
| RRIRIRPPRLPRPRPRPQNVPRP | -0.173 |
| RRIRIRPPRLPRPRPRPQPTPRP | 0.115 |
| RRIRIRPPRLPRPRPRPQRFPRP | -0.231 |
| RRIRIRPPRLPRPRPRPQRNPRP | -0.188 |

| Sequence | shrunken log2 fold change |
| --- | --- |
| RRIRIRPPRLPRPRPRPQSLPRP | -0.321 |
| RRIRIRPPRLPRPRPRPQWCPRP | 0.307 |
| RRIRIRPPRLPRPRPRPQYTPRP | -1.18 |
| RRIRIRPPRLPRPRPRPRAFPRP | -0.0671 |
| RRIRIRPPRLPRPRPRPRAHPRP | -0.201 |
| RRIRIRPPRLPRPRPRPRCEPRP | -0.0571 |
| RRIRIRPPRLPRPRPRPRDAPRP | 0.215 |
| RRIRIRPPRLPRPRPRPRESPRP | 0.133 |
| RRIRIRPPRLPRPRPRPRFQPRP | -0.0961 |
| RRIRIRPPRLPRPRPRPRHEPRP | 0.0234 |
| RRIRIRPPRLPRPRPRPRHRPRP | -0.0972 |
| RRIRIRPPRLPRPRPRPRHYPRP | -0.177 |
| RRIRIRPPRLPRPRPRPRINPRP | -0.482 |
| RRIRIRPPRLPRPRPRPRKAPRP | -0.000442 |
| RRIRIRPPRLPRPRPRPRKDPRP | -0.387 |
| RRIRIRPPRLPRPRPRPRKEPRP | 0.00489 |
| RRIRIRPPRLPRPRPRPRKSPRP | -0.169 |
| RRIRIRPPRLPRPRPRPRLHPRP | -0.341 |
| RRIRIRPPRLPRPRPRPRLLPRP | -0.003 |
| RRIRIRPPRLPRPRPRPRLQPRP | 0.123 |
| RRIRIRPPRLPRPRPRPRMIPRP | 2.5 |
| RRIRIRPPRLPRPRPRPRMPPRP | -0.0534 |
| RRIRIRPPRLPRPRPRPRMTPRP | 0.043 |
| RRIRIRPPRLPRPRPRPRPGPRP | 0.618 |
| RRIRIRPPRLPRPRPRPRPSPRP | 0.322 |

— the supplement of paper PMC9112550, “Optimization of the antimicrobial peptide Bac7 by deep mutational scanning” (BMC Biology, 2022)
